The text below walks through data of US20240317857A1 (AMPSOURCE BIOPHARMA SHANGHAI, published 2024).

In assay [1] the target is T1, human CD3E (purchased from Acro Biosystems) (human, UniProt P07766 23-126).
T1 construct: also called human CD3 antigen; human CD3E molecules
Kind of assay: ELISA, plate coated with human CD3E. As for the experimental part:
A microtiter plate was coated with 100 μL of 0.1 μg/mL human CD3E (purchased from Acro Biosystems) overnight at room temperature. The coating solution was discarded, and the wells were blocked with skimmed milk dissolved in phosphate buffered saline (PBS) for 0.5 hours and washed with PBS containing 0.05% Tween-20 (PBST). Then the purified murine antibodies AP191, AP591 and AP831 against human CD3 were added with 50 μL per well and incubated for 1 h at room temperature. The wells were washed with 0.05% PBST. Then 50 μL of HRP-labeled goat anti-mouse IgG polyclonal antibody (purchased from Jackson Laboratory) was added per well as the detected antibody and incubated for 1 h at 37° C. The wells were washed three times with 0.05% PBST, added with TMB (100 μL/well) and developed at room temperature for 5 min. 0.2 M H₂SO₄ was added to terminate the reaction, 50 μL/well. Absorption values were read by a microplate reader at double wavelengths 450 nm/620 nm. Plotting was performed by software GraphPad Prism 6 with OD 450 nm/620 nm as the Y-axis and an antibody concentration as the X-axis.
(ELISA stands for enzyme-linked immunosorbent assay.)

Assay [2] addresses T2, human CD3 on human T cells (human, UniProt P07766 23-207).
T2 construct: whole, on cells; also called human primary T cells; NFAT-Jurkat cells
Kind of assay: flow cytometry on human primary T cells.

Assay [3] addresses T3, His-labeled human CD3E (human, UniProt P07766 23-126).
T3 construct: also called human CD3E antigen; antigen CD3E; not shown: His label
Kind of assay: BLI (Octet), His-labeled human CD3E on Ni-NTA sensors, antibody 3.125-100 nM. The procedure:
(§1) The binding affinity constants of the purified murine monoclonal antibodies to antigen CD3E were determined by […] (BLI) with the ForteBio Octet RED&QK system from PALL Corporation. Concentration gradients of a multichannel parallel quantitative analysis were set to 3.125, 6.25, 12.5, 25, 50 and 100 nM, and His-labeled human CD3E (10 μg/mL) was coupled to Ni-NTA sensors.

Assay [4] has as its target T3, His-labeled human CD3E. Kind of assay: BLI (Octet), method of Example 3: His-labeled human CD3E on Ni-NTA sensors. The procedure: as §1
For example, the experimental method for determining the kinetic constants and affinity equilibrium dissociation constants of the humanized antibodies was as described in Example 3.

T3 sequence (P07766 23-126): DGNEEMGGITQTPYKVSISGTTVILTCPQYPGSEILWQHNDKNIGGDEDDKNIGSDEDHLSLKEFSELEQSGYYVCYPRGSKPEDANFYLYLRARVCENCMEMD
T1 sequence (P07766 23-126 limits assumed): as the sequence (P07766 23-126) above
T2 sequence (P07766 23-207): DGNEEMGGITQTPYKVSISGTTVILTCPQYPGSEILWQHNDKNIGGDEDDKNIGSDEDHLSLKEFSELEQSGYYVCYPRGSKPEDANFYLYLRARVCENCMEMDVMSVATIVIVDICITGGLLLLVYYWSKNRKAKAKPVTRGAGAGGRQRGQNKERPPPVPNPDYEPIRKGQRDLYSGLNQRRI

B1: murine monoclonal antibody AP591 (antibody, mouse IgG1, V domains shown)
VH: EVQLVESGGGLVQPKGSLKLSCAASGFTFNTYAMNWVRQAPGKGLEWVGRIRSKINNYATYYADSVRDRFTISRDDSQSMLYLQMSNLKTEDTAMYYCVRHDNFYGSTYSWFADWGQGTLVTVSA
VL: AVVTQESALTTSPGETVTLTCRSSTGVVTTSNYANWVQEKPDHLFTGLIGATNYRVPGVPARFSGSLIGDKAALTITGAQTEDEAIYFCVLWYSNHWVFGGGTKLTVL
By EC50 is commonly meant the concentration needed to bring the measured effect to its halfway point. Broadly, the Kd is the concentration at which binding is half-saturated. What is called koff is a measure of how fast the partners let go of each other. A higher koff goes with a short-lived complex. For orientation: kon means the second-order rate constant of association. Low readings indicate slow association, high ones fast association. B1 gave an EC50 in assay [1] of 0.0283 nM. A half-maximal effect in assay [2] (EC50) was put at 8.91 nM. In addition, in the assay with His-labeled human CD3E [3], the affinity, expressed as Kd, was 0.0194 nM; the koff worked out at 1.04e-05 s⁻¹; the kon came out at 539000 M⁻¹ s⁻¹.

B2: humanized antibody AB616 (antibody, V domains shown)
VH: EVQLLESGGGLVQPGGSLKLSCAASGFTFDTYAMNWVRQAPGKGLEWVGRIRSKINNYATYYADSVKDRFTISRDDSKNTAYLQMNNLKTEDTAMYYCVRHDNFYGSTYSWFADWGQGTLVTVSS
VL: ELVVTQEPSLTVSPGGTVTLTCRSSTGVVTTSNYANWVQEKPDHLFTGLIGATNYRAPGTPARFSGSLLGGKAALTLSGVQPEDEAIYFCVLWYSNHWVFGGGTKLTVL
Turning to B2, in the assay with His-labeled human CD3E [4], binding was put at a Kd of 0.116 nM, the koff is 2.97e-05 s⁻¹ and the kon amounted to 256000 M⁻¹ s⁻¹.

B3: humanized antibody AB619 (antibody, V domains shown)
VH: EVQLLESGGGLVQPGGSLKLSCAASGFTFNTYAMNWVRQAPGKGLEWVGRIRSKINNYATYYADSVKDRFTISRDDSKNTAYLQMNNLKTEDTAMYYCVRHDNFYGSTYSWFADWGQGTLVTVSS
VL: ELVVTQEPSLTVSPGGTVTLTCRSSTGVVTTSNYANWVQEKPDHLFTGLIGATDYRAPGTPARFSGSLLGGKAALTLSGVQPEDEAIYFCVLWYSNHWVFGGGTKLTVL
Regarding B3, in the assay with His-labeled human CD3E [4], the Kd was 0.123 nM, the koff amounted to 3.41e-05 s⁻¹ and the kon is 276000 M⁻¹ s⁻¹.

B4: humanized antibody AB618 (antibody, V domains shown)
VH: EVQLLESGGGLVQPGGSLKLSCAASGFTFNTYAMNWVRQAPGKGLEWVGRIRSKINNYATYYADSVKDRFTISRDDSKNTAYLQMNNLKTEDTAMYYCVRHDNFYGSTYSWFADWGQGTLVTVSS
VL: ELVVTQEPSLTVSPGGTVTLTCRSSTGVVTTSNYANWVQEKPDHLFTGLIGDTNYRAPGTPARFSGSLLGGKAALTLSGVQPEDEAIYFCVLWYSNHWVFGGGTKLTVL
As for B4, in the assay with His-labeled human CD3E [4], the Kd was less than 0.001 nM, the koff is less than 1e-07 s⁻¹ and the kon was 51200 M⁻¹ s⁻¹.

B5: humanized antibody AB626 (antibody, V domains shown)
VH: EVQLLESGGGLVQPGGSLKLSCAASGFTFNTYAMNWVRQAPGKGLEWVGRIRSKINNYATYYADSVKDRFTISRDDSKNTAYLQMNNLKTEDTAMYYCVRHDNFYGSTYSHFADWGQGTLVTVSS
VL: ELVVTQEPSLTVSPGGTVTLTCRSSTGVVTTSNYANWVQEKPDHLFTGLIGATNYRAPGTPARFSGSLLGGKAALTLSGVQPEDEAIYFCVLWYSNHWVFGGGTKLTVL
Take B5: in the assay with His-labeled human CD3E [4], binding was characterised by a dissociation constant (Kd) of 182 nM, the koff was 0.00169 s⁻¹ and the kon is 9300 M⁻¹ s⁻¹.

B6: humanized antibody AB624 (antibody, V domains shown)
VH: EVQLLESGGGLVQPGGSLKLSCAASGFTFNTYAMNWVRQAPGKGLEWVGRIRSKINNYATYYADSVKDRFTISRDDSKNTAYLQMNNLKTEDTAMYYCVRHDNFHGSTYSWFADWGQGTLVTVSS
VL: ELVVTQEPSLTVSPGGTVTLTCRSSTGVVTTSNYANWVQEKPDHLFTGLIGATNYRAPGTPARFSGSLLGGKAALTLSGVQPEDEAIYFCVLWYSNHWVFGGGTKLTVL
In the assay with His-labeled human CD3E [4], B6 yielded a Kd of 0.677 nM, a koff of 0.000201 s⁻¹ and a kon of 296000 M⁻¹ s⁻¹.

B7: humanized antibody AB622 (antibody, V domains shown)
VH: EVQLLESGGGLVQPGGSLKLSCAASGFTFNTYAMNWVRQAPGKGLEWVGRIRSKINNYATYYADSVKDRFTISRDDSKNTAYLQMNNLKTEDTAMYYCVRHDNFYGSTYSWFADWGQGTLVTVSS
VL: ELVVTQEPSLTVSPGGTVTLTCRSSTGVVTTSNYANWVQEKPDHLFTGLIGATNHRAPGTPARFSGSLLGGKAALTLSGVQPEDEAIYFCVLWYSNHWVFGGGTKLTVL
For B7, in the assay with His-labeled human CD3E [4], binding was put at a Kd of 1.45 nM, the koff was found to be 0.000391 s⁻¹ and the kon was determined as 270000 M⁻¹ s⁻¹.

B8: humanized antibody AB617 (antibody, V domains shown)
VH: EVQLLESGGGLVQPGGSLKLSCAASGFTFNDYAMNWVRQAPGKGLEWVGRIRSKINNYATYYADSVKDRFTISRDDSKNTAYLQMNNLKTEDTAMYYCVRHDNFYGSTYSWFADWGQGTLVTVSS
VL: ELVVTQEPSLTVSPGGTVTLTCRSSTGVVTTSNYANWVQEKPDHLFTGLIGATNYRAPGTPARFSGSLLGGKAALTLSGVQPEDEAIYFCVLWYSNHWVFGGGTKLTVL
Consider B8, for which, in the assay with His-labeled human CD3E [4], the Kd worked out at 2.77 nM, the koff was found to be 0.000698 s⁻¹ and the kon was found to be 252000 M⁻¹ s⁻¹.

B9: humanized antibody AB627 (antibody, V domains shown)
VH: EVQLLESGGGLVQPGGSLKLSCAASGFTFNTYAMNWVRQAPGKGLEWVGRIRSKINNYATYYADSVKDRFTISRDDSKNTAYLQMNNLKTEDTAMYYCVRHDNFYGSTYSWHADWGQGTLVTVSS
VL: ELVVTQEPSLTVSPGGTVTLTCRSSTGVVTTSNYANWVQEKPDHLFTGLIGATNYRAPGTPARFSGSLLGGKAALTLSGVQPEDEAIYFCVLWYSNHWVFGGGTKLTVL
In the assay with His-labeled human CD3E [4], B9 came in with a Kd not above 0.00264 nM, an off-rate (koff) of less than 1e-07 s⁻¹ and a kon of 7300 M⁻¹ s⁻¹.

B10: humanized antibody AB621 (antibody, V domains shown)
VH: EVQLLESGGGLVQPGGSLKLSCAASGFTFNTYAMNWVRQAPGKGLEWVGRIRSKINNYATYYADSVKDRFTISRDDSKNTAYLQMNNLKTEDTAMYYCVRHDNFYGSTYSWFADWGQGTLVTVSS
VL: ELVVTQEPSLTVSPGGTVTLTCRSSTGVVTTSNHANWVQEKPDHLFTGLIGATNYRAPGTPARFSGSLLGGKAALTLSGVQPEDEAIYFCVLWYSNHWVFGGGTKLTVL
In the assay with His-labeled human CD3E [4], B10 had a Kd of 2.12 nM, a koff of 0.000369 s⁻¹ and a kon of 174000 M⁻¹ s⁻¹.

B11: humanized antibody AB623 (antibody, V domains shown)
VH: EVQLLESGGGLVQPGGSLKLSCAASGFTFNTYAMNWVRQAPGKGLEWVGRIRSKINNYATYYADSVKDRFTISRDDSKNTAYLQMNNLKTEDTAMYYCVRHDNHYGSTYSWFADWGQGTLVTVSS
VL: ELVVTQEPSLTVSPGGTVTLTCRSSTGVVTTSNYANWVQEKPDHLFTGLIGATNYRAPGTPARFSGSLLGGKAALTLSGVQPEDEAIYFCVLWYSNHWVFGGGTKLTVL
As to B11, in the assay with His-labeled human CD3E [4], the Kd was 23.3 nM, the off-rate (koff) was 0.00119 s⁻¹ and the kon worked out at 51200 M⁻¹ s⁻¹.

B12: humanized antibody AB620 (antibody, V domains shown)
VH: EVQLLESGGGLVQPGGSLKLSCAASGFTFDTYAMNWVRQAPGKGLEWVGRIRSKINNYATYYADSVKDRFTISRDDSKNTAYLQMNNLKTEDTAMYYCVRHDNFYGSTYSWFADWGQGTLVTVSS
VL: ELVVTQEPSLTVSPGGTVTLTCRSSTGVVTTSNYANWVQEKPDHLFTGLIGATDYRAPGTPARFSGSLLGGKAALTLSGVQPEDEAIYFCVLWYSNHWVFGGGTKLTVL
Take B12: in the assay with His-labeled human CD3E [4], binding was put at a Kd of 0.169 nM, the dissociation rate constant (koff) amounted to 4.26e-05 s⁻¹ and the kon is 253000 M⁻¹ s⁻¹.

B13: humanized antibody AB615 (antibody, V domains shown)
VH: EVQLLESGGGLVQPGGSLKLSCAASGFDFNTYAMNWVRQAPGKGLEWVGRIRSKINNYATYYADSVKDRFTISRDDSKNTAYLQMNNLKTEDTAMYYCVRHDNFYGSTYSWFADWGQGTLVTVSS
VL: ELVVTQEPSLTVSPGGTVTLTCRSSTGVVTTSNYANWVQEKPDHLFTGLIGATNYRAPGTPARFSGSLLGGKAALTLSGVQPEDEAIYFCVLWYSNHWVFGGGTKLTVL
In the assay with His-labeled human CD3E [4], B13 came in with a Kd of 0.668 nM, a koff of 0.00017 s⁻¹ and a kon of 254000 M⁻¹ s⁻¹.

B14: humanized antibody AB625 (antibody, V domains shown)
VH: EVQLLESGGGLVQPGGSLKLSCAASGFTFNTYAMNWVRQAPGKGLEWVGRIRSKINNYATYYADSVKDRFTISRDDSKNTAYLQMNNLKTEDTAMYYCVRHDNFYGSTHSWFADWGQGTLVTVSS
VL: ELVVTQEPSLTVSPGGTVTLTCRSSTGVVTTSNYANWVQEKPDHLFTGLIGATNYRAPGTPARFSGSLLGGKAALTLSGVQPEDEAIYFCVLWYSNHWVFGGGTKLTVL
In the assay with His-labeled human CD3E [4], B14 displayed a Kd of 1.8 nM, an off-rate (koff) of 0.000318 s⁻¹ and a kon of 177000 M⁻¹ s⁻¹.

B15: murine monoclonal antibody AP191 (antibody, mouse IgG1, V domains shown)
VH: QVQLQQSGPELVKPGASMKMSCKASGYTFTSYYIHWVKQRPGQGLEWIGWIYPGDGSTKFNEKFRGKTSLTADKSSNTAYMFLSSLTSEDSAIYFCARDGYSLYYFEFWGHGTTLTVSS
VL: DIVMSQSPSSLAVSAGETVTMSCKSSQSLLNSRTRKTYLAWYQQKPGQSPKLLIYWASTRDSGVPDRFTGSGSGTDFTLTISSVQAEDLAVYYCVQSYTLRTFGGGTKLEIK
In assay [1], B15 showed an EC50 of 0.0149 nM. The molecule further came in with an EC50 in assay [2] of 2.74 nM. In the assay with His-labeled human CD3E [3], this molecule displayed a Kd of 0.121 nM, a koff of 9.73e-05 s⁻¹ and a kon of 802000 M⁻¹ s⁻¹.
